In US20140105855A1:

Target: preformed IL-17RA-IL-17A complex (IL-17A captured by immobilised IL-17RA) (human) (UniProt Q16552)
Assay: SPR, second receptor injected over IL-17A captured on immobilised IL-17RA

Sequence of preformed IL-17RA-IL-17A complex (IL-17A captured by immobilised IL-17RA) (human) (Q16552 other isoform, or with tags, fused parts or gaps): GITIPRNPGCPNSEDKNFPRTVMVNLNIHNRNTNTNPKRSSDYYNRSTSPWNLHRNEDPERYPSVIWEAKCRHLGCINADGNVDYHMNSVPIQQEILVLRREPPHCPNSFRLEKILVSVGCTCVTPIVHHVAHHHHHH

Kd: 3.1 µM
Substance: IL-17RA extracellular domain (ECD) (receptor)
